Experimental data from the Human Domainome abundance scans (Beltran et al. 2025).
± gives the uncertainty stated by the source.

B1: SAM and SH3 domain-containing protein 1, residues 630 to 700; numbered along this chain, O94885 (parent)
chain: GRPPQPKSVEDLLDRINLKEHMPTFLFNGYEDLDTFKLLEEEDLDELNIRDPEHRAVLLTAVELLQEYDSN

Variants of: B1
Experiment: abundance fitness (aPCA) (normalised: wild type 0, dead -1); higher = more abundant; growth selection in yeast, the domain comes from the species named
Details: Homo sapiens

Point of comparison: P52W, abundance fitness -0.782 ± 0.071. Against it:
- D32H — higher, -0.187 ± 0.048
- D32S — higher, 0.094 ± 0.033
- D32C — higher, -0.292 ± 0.055
- D32N — higher, -0.085 ± 0.049
- D32I — higher, -0.568 ± 0.079
- D32G — higher, -0.585 ± 0.055
- D32R — higher, -0.268 ± 0.038
- D32T — higher, 0.172 ± 0.036
- D32F — within error, -0.803 ± 0.092
- D43W — within error, -0.928 ± 0.097
- D43R — higher, -0.385 ± 0.043
- D43Y — lower, -0.953 ± 0.076
- D43A — higher, -0.325 ± 0.045
- D43E — higher, -0.503 ± 0.067
- D43C — within error, -0.713 ± 0.079
- D43G — higher, -0.444 ± 0.053
- D43T — higher, -0.19 ± 0.039
- D34C — higher, -0.468 ± 0.061
- D34T — higher, -0.415 ± 0.043
- D34N — higher, -0.123 ± 0.041
- D34V — within error, -0.719 ± 0.055
- Q5F — higher, 0.068 ± 0.048
- Q5M — higher, -0.033 ± 0.048
- Q5P — higher, -0.276 ± 0.055
- Q5R — higher, -0.25 ± 0.049
- Q5S — higher, -0.334 ± 0.047
- Q5E — higher, -0.481 ± 0.098
- Q5A — higher, -0.291 ± 0.053
- P52E — higher, -0.317 ± 0.059
- P52T — higher, -0.437 ± 0.045
- P52S — higher, -0.354 ± 0.039
- P52Y — lower, -1.02 ± 0.097
- P52N — higher, -0.569 ± 0.062
- P52V — higher, -0.5 ± 0.05
- M22D — within error, -0.749 ± 0.077
- M22K — higher, -0.252 ± 0.055
- M22C — higher, -0.135 ± 0.043
- M22S — higher, -0.375 ± 0.04
- N48P — within error, -0.837 ± 0.16
- N48C — higher, -0.273 ± 0.12
- N48V — lower, -1.21 ± 0.2
- N48L — within error, -0.741 ± 0.1
- R50W — higher, 0.003 ± 0.055
- R50I — higher, -0.11 ± 0.052
- R50T — higher, 0.183 ± 0.037
- R50Q — higher, 0.039 ± 0.048
- R50A — higher, -0.301 ± 0.043
- L38D — higher, -0.175 ± 0.053
- L38Q — higher, 0.175 ± 0.044
- L38E — higher, 0.03 ± 0.051
- L38H — higher, 0.029 ± 0.05
- L38P — within error, -0.857 ± 0.081
- L38V — higher, -0.492 ± 0.046
- L13P — within error, -0.71 ± 0.07
- L13R — within error, -0.803 ± 0.06
- L13V — lower, -1 ± 0.085
- L13A — within error, -0.788 ± 0.075
- F27Y — higher, 0.122 ± 0.045
- F27T — higher, 0.341 ± 0.036
- F27I — higher, 0.157 ± 0.045
- H54Y — within error, -0.857 ± 0.074
- H54G — within error, -0.832 ± 0.055
- H54K — higher, -0.496 ± 0.078
- H54Q — higher, 0.059 ± 0.048
- H54I — higher, -0.458 ± 0.054
- H54S — higher, -0.408 ± 0.04
- H54W — lower, -0.96 ± 0.09
- P23G — higher, 0.039 ± 0.043
- P23V — higher, -0.433 ± 0.049
- P23W — higher, -0.103 ± 0.061
- P23E — higher, 0.282 ± 0.049
- P23Q — higher, -0.017 ± 0.056
- D45I — higher, 0.037 ± 0.039
- D45A — higher, -0.622 ± 0.057
- D45S — higher, -0.544 ± 0.04
- D45Y — higher, -0.496 ± 0.052
- D45H — higher, -0.538 ± 0.053
- D45L — higher, -0.113 ± 0.033
- A61N — higher, -0.479 ± 0.066
- A61D — within error, -0.787 ± 0.099
- A61W — higher, -0.287 ± 0.064
- A61V — higher, -0.644 ± 0.063
- A61F — within error, -0.759 ± 0.094
- V62D — within error, -0.607 ± 0.11
- V62W — within error, -0.8 ± 0.079
- V62K — higher, 0.005 ± 0.059
- V62T — higher, -0.476 ± 0.062
- V62M — within error, -0.648 ± 0.072
- V62E — higher, -0.489 ± 0.1
- V62H — higher, -0.596 ± 0.072
- E10Y — higher, -0.418 ± 0.055
- E10C — higher, -0.463 ± 0.071
- E10K — higher, -0.407 ± 0.066
- E10W — higher, -0.511 ± 0.086
- G1R — higher, -0.203 ± 0.07
- G1D — higher, 0.195 ± 0.057
- G1P — higher, -0.137 ± 0.27
- G1C — higher, -0.067 ± 0.085
- G1M — higher, 0.013 ± 0.098
- G1V — higher, -0.049 ± 0.051
- E40I — higher, -0.431 ± 0.055
- E40F — lower, -1.01 ± 0.089
- E40R — higher, 0.337 ± 0.035
- T35C — higher, -0.206 ± 0.053
- T35N — higher, -0.159 ± 0.049
- T35Y — higher, -0.587 ± 0.064
- T35M — higher, -0.312 ± 0.059
- T35F — within error, -0.911 ± 0.099
- L58N — higher, -0.51 ± 0.075
- L58A — higher, -0.531 ± 0.06
- L58F — higher, -0.596 ± 0.099
- L58P — higher, -0.501 ± 0.067
- L58M — within error, -0.717 ± 0.078
- L58T — within error, -0.72 ± 0.07
- L44S — within error, -0.875 ± 0.062
- L44V — within error, -0.791 ± 0.059
- L44F — higher, -0.38 ± 0.061
- D69W — within error, -0.752 ± 0.093
- D69P — higher, -0.081 ± 0.041
- D69Y — higher, -0.644 ± 0.066
- D69Q — higher, -0.262 ± 0.052
- D69A — higher, -0.386 ± 0.047
- D69C — higher, -0.479 ± 0.094
- F36M — higher, -0.354 ± 0.063
- F36Y — within error, -0.878 ± 0.095
- F36S — within error, -0.749 ± 0.06
- E63L — higher, -0.587 ± 0.046
- E63A — higher, 0.034 ± 0.035
- E63Q — higher, -0.018 ± 0.046
- E63T — higher, -0.226 ± 0.04
- E42V — higher, -0.302 ± 0.046
- E42F — within error, -0.743 ± 0.067
- E42S — higher, 0.102 ± 0.034
- E42C — higher, -0.222 ± 0.053
- E42W — higher, -0.618 ± 0.08
- E42I — higher, -0.477 ± 0.055
- E41N — higher, -0.408 ± 0.061
- E41I — higher, -0.588 ± 0.072
- E41C — higher, -0.483 ± 0.067
- E41G — higher, -0.465 ± 0.07
- E41R — higher, -0.499 ± 0.054
- E41W — higher, -0.567 ± 0.091
- L33H — within error, -0.791 ± 0.083
- L33E — within error, -0.962 ± 0.14
- L33Y — lower, -1.15 ± 0.12
- L33T — within error, -0.828 ± 0.08
- L33V — higher, -0.607 ± 0.058
- L33N — within error, -0.764 ± 0.081
- D11Q — higher, -0.319 ± 0.052
- D11K — within error, -0.766 ± 0.088
- D11H — within error, -0.78 ± 0.067
- D11R — lower, -0.926 ± 0.07
- E20W — within error, -0.879 ± 0.13
- E20M — higher, -0.212 ± 0.064
- L26M — higher, -0.043 ± 0.045
- L26D — within error, -0.667 ± 0.089
- L26F — higher, -0.167 ± 0.054
- L26V — higher, 0.034 ± 0.037
- L26Y — higher, -0.181 ± 0.055
- L26Q — higher, -0.11 ± 0.049
- N71A — higher, 0.116 ± 0.045
- N71D — higher, 0.197 ± 0.047
- L64H — higher, 0.222 ± 0.041
- L64A — higher, 0.343 ± 0.036
- L64N — higher, 0.295 ± 0.041
- L64S — higher, 0.31 ± 0.033
